# Entries after “also recorded” stand apart in the source; their conditions may differ.
# Legend:
# [1] = tested on: human pancreatic cancer MIA PaCa-2 cells; assay: Cell-ELISA, intact cells; type: binding; conditions: for binding to intact, EDTA-released MiaPaCa-2 cells, cell-ELISA: EDTA 10 mmols, pH 7.2, 5 min, 37° C., FIG. 10; for binding to intact MIA PaCa-2 cells when competed with NMC-P2 peptide / binding to intact MIA PaCa-2 cells when competed with soluble NMC-P1 peptide: FIG. 8; for relative binding (reactivity) to intact cells, cell-ELISA: MIA PaCa-2, mAb 1 μg/mL, FIGS. 3-5
# Method: (§1) Cell-ELISA Methodology: 8,000-10,000 cells/well of a 96-well microplate were grown overnight. The next day, unbound cells were washed off with sterile 1× PBS. The cells in each well were fixed with freshly prepared 4% buffered paraformaldehyde (pH 7.2) for 1 hour followed by 3 washes with 1× PBS. The wells were then blocked with 5% BSA in PBS (100 ? /well) for 2 hours at room temperature. Microplate wells were then washed 5 times with 300 ? of ice cold 1× PBS. MAbs NMC-103, NMC-204 or NMC-303 at 1 μg/mL in 1% BSA/PBS were then incubated with various cancer or normal untransformed cells for 2 hours at room temperature. Wells were then washed with 300 ? of ice-cold 1× PBS for 5 times and corresponding secondary antibody HRP-GaM F(ab′)2 diluted 1:2500 or 1:5000 in PBS with 1% BSA were added at 100 ? /well for 1 hour at room temperature followed by washing 5 times with 300 ? of ice-cold 1× PBS. TMB Substrate Solution (1-StepTM Ultra TMB-ELISA, ThermoFisher, Cat. No. 34028) was then added at 50 ? ? to each microplate well and incubated at room temperature for 30 minutes. The reaction was stopped by addition of 50 μL, of stop solution (ThermoFisher, Cat. No. SSO4) to each well and absorbance of each well was measured at OD450 nm. The absorbance value of each experimental well was corrected for the absorbance value obtained from wells treated with isotype-identical mAbs included in each experiment. The results are thus expressed as “relative binding”.
# [2] = tested on: human breast cancer MCF-7 cells; assay: Cell-ELISA, intact cells; type: binding; conditions: mAb 1 μg/mL, FIGS. 3-5
# Method: as §1
# [3] = tested on: mouse colon cancer MC-38 cells (subcutaneous tumors); assay: MC-38 syngeneic mouse model of colon cancer; type: in vivo, mouse (C57BL/6); conditions: for reduction in tumor volume versus control: FIG. 23
# Method: Methodology used (Syngeneic Mouse Models of lung, colon and pancreatic cancer): To investigate the anti-tumor effects of HDM2-specific antibodies on lung, colon and pancreatic tumors in vivo, three well-known syngeneic mouse models of lung, colon and pancreatic cancer were used (Sharma et al, 1999, J. Immunol. 163 (9):5020-5028; McIntyre, 2015, Bioassays 37(8):909-920; Li, et al, 2015, Sci. Rep. 5:7856). Subcutaneous tumors were prepared by implanting either mouse Lewis Lung cancer LL/2 cells (2.5×10^5 cells/mouse), mouse colon cancer MC-38 cells (5×10^5 cells/mouse) or mouse pancreatic cancer Panc-2 cells (2×10^6 cells/mouse) in the right flanks of 8-week-old female C57BL/6 mice (n=6-7). The mice were returned to their respective cages after tumor implantation. From day 7 after tumor implantation, the tumor volumes were measured 2 times/week with a digital caliper. In the case of MC-38 and Panc-2 study, treatment started when the tumors reached an average of 70-80 mm^3. In the case of LL/2 study, tumor cell inoculation and treatment were initiated simultaneously. Mice were micro-chipped and registered following tumor implantation. Tumor volume measurements and body weights were recorded and mice were randomized into groups that received: A) mAb NMC-103 at 0.4 mg/kg (3 times a week for 3 weeks), 2 mg/kg (2 times a week for 3 weeks), or 4 mg/kg (2 times a week for 3 weeks); B) NMC-204 at 0.4 mg/kg (3 times a week for 3 weeks); C) isotype control mouse IgG1 (Abeam, Cat. No. ab 18447) or IgG3 (Abeam, Cat. No. ab 18392) at 0.4 mg/kg (3 times a week for 3 weeks) or 4 mg/kg (2 times a week for 3 weeks); D) Gemcitabine (25 mg/kg) and nab-paclitaxel (5 mg/kg) 2 times a week for 3 weeks; or E) a combination of gemcitabine (25 mg/kg), nab-paclitaxel (5 mg/kg) and mAb NMC-103 (2 mg/kg; 2 times a week for 3 weeks) or (10 mg/kg; 2 times a week for 2 weeks). All tumors were injected subcutaneously and all treatments were performed by intraperitoneal injection. Any mouse displaying prolonged adverse clinical signs, or with body weight loss exceeding 15% relative to body weight at day 0, was euthanized. Tumor measurements from post-treatment with HDM2-specific antibodies versus isotype control mouse antibodies versus standard of care treatment (gemcitabine and nab-paclitaxel) were made, and results are presented in FIGS. 16-19.
# To further evaluate the NMC-103 dose-dependent anti-tumor effect, in a separate study, the MC-38 syngeneic tumor in mice (n=5) was re-established and treatment carried out similarly to the study of FIG. 17 with the following modification: increase of antibody concentration from 0.4 mg/kg to 10 mg/kg.
# [4] = target: NMC-P1 peptide (SEQ ID NO:1), amino acids 1-15 of HDM2 (Homo sapiens, UniProt Q00987); assay: Peptide-ELISA, NMC-P1 peptide; type: binding; conditions: 5 μg/ml peptide dried on plate; OD 450 nm
# Method: (§2) Peptide-ELISA Methodology: 5 μg/ml of NMC-P1, NMC-P2 or NMC-P3 peptide antigen was dried onto a 96-well ELISA plate overnight. Plates were then blocked with 5% BSA in 1× phosphate-buffered saline (PBS) (100 ? /well) for 2 hours at room temperature. Microplate wells were then washed 5 times with 300 ? of ice cold 1× PBS. Appropriate dilutions of monoclonal antibodies NMC-103, NMC-204 or NMC-303 in 1% bovine serum albumin (BSA) in PBS solution were then incubated with their corresponding peptides (NMC-P1, NMC-P2 or NMC-P3, respectively) at room temperature. After 2 hours, wells were washed 5 times with 300 ? ? ice-cold PBS/well and 100 ? secondary antibody (HRP-labeled Goat anti-Mouse F(ab′)2 H&L cross-adsorbed secondary antibody (HRP-GaM F(ab′)2), ThermoFisher, Cat. No. A24524) diluted 1:2500 to 1:5000 in PBS-1% BSA solution were added and the incubation continued at room temperature. After 1 hour, the wells were washed again 5 times with 200 ? of ice-cold PBS and 50 μiL of the TMB Substrate Solution (1-StepTM Ultra TMB-ELISA, ThermoFisher, Cat. No. 34028) were added to each well and color was allowed to develop for 30 minutes at room temperature. The reaction was stopped by addition of 50 μ ? ? of stop solution (ThermoFisher, Cat. No. SSO4) to each well and absorbance of each well was read immediately for optical density (OD) at 450 nm.
# [5] = target: NMC-P2 peptide (SEQ ID NO:2), amino acids 15-25 of HDM2 (Homo sapiens, UniProt Q00987); assay: Peptide-ELISA, NMC-P2 peptide; type: binding; conditions: 5 μg/ml peptide dried on plate; OD 450 nm
# Method: as §2
# [6] = 0.4 mg/kg i.p. 3 times a week for 3 weeks
Molecule,"binding to intact, EDTA-released MiaPaCa-2 cells, cell-ELISA [1]",binding to intact MIA PaCa-2 cells when competed with NMC-P2 peptide [1],binding to intact MIA PaCa-2 cells when competed with soluble NMC-P1 peptide [1],"relative binding (reactivity) to intact cells, cell-ELISA [1]","relative binding (reactivity) to intact cells, cell-ELISA [2]","tumor volume ([3]; 0.4 mg/kg i.p. 3 times a week for 3 weeks, FIG. 18A) [mm^3]","reduction in tumor volume versus control [3, 6]","tumor cells stained positively for Ki67 ([3]; NMC-204 study, 0.4 mg/kg, FIG. 18B) [%]",binding to NMC-P1 peptide (peptide-ELISA) [4],binding to NMC-P2 peptide (peptide-ELISA) [5],binding to intact MIA PaCa-2 cells after pre-incubation with full-length recombinant HDM2 ([1]; FIG. 9),"tumor cells stained positive for Ki67 (immunohistochemistry) ([3]; NMC-103 study, 0.4 mg/kg, FIG. 17B) [%]","average tumor size ([3]; day 12, 10 mg/kg, 2 times per week for 2 weeks, n=5, FIG. 31) [mm^3]","tumor volume ([3]; treated for 18 days, 0.4 mg/kg i.p. 3 times a week for 2.5 weeks, FIG. 17A) [mm^3]"
"NMC-204: mouse monoclonal antibody, IgG3 isotype, binds NMC-P2 (SEQ ID NO:2); VH SEQ ID NO:38, VL SEQ ID NO:39 (antibody, V domains shown, mAb NMC-204 Heavy Chain Variable Region; mAb NMC-204 Light Chain Variable Region) VH: EVQLQESGSVLVRPGASVKLSCKASGDTLSGSWMHWAMQRPGQGLEWIGEIHLNRGTTNYNEKFKGKATVTVDTSSSTAYVDLSSLTSEDSAVYYCARSPGFAYWGQGTLVTVSA VL: GIVMTQAAPSVPVTPGESVSISCRSSKSLLHSNGNSYLYWFLQRPGQSPQLLIYRMSNLASGVPDRFSGSGSGTAFTLRITRVEAEDVGVYYCMQHLEYPFTFGSGTKLEIK",bound,competed,not with NMC-P1,reactivity,reactivity,1670,significant (p<0.005) reduction in tumor volume,30,did not bind,bound; also recorded: strong binding,–,–,–,–
"NMC-103: mouse monoclonal antibody, IgG1 isotype, binds NMC-P1 (SEQ ID NO:1); VH SEQ ID NO:36, VL SEQ ID NO:37 (antibody, V domains shown, mAb NMC-103 Heavy Chain Variable Region; mAb NMC-103 Light Chain Variable Region) VH: EVQLQESGGGLVQPGGSLRLSCTTSGFTFTHYYMSWVRQPPGKALEWLGFIRNKAKGYTAEYSASVKGRFTISRDNSQSILYLQMNTLRPEDSATYYCARDIGDNWGQGTLVTVSS VL: DIVMTQAAFSNPVTLGTSASISCRSSKNLLHSNGITYLYWYLQRPGQSPQLLISRVSNLASGVPNRFSGSESGTDFTLRISRVEAEDVGVYFCAQLLELPYTFGGGTKLEIK",bound,did not have any effect,completely abolished,reactivity,reactivity,–,significant (p<0.005) reduction in tumor volume,–,bound; also recorded: strong binding,did not bind,reduced,5,210,1268

# — patent US11407840B2, “Antibodies to M(H)DM2/4 and their use in diagnosing and treating cancer” (NomoCan Pharmaceuticals LLC, priority 2017, dated 2022)
